# Test: Circular dichroism of secondary structure of SiNP-released peptide
# Type: physicochemical
# Settings: CD
# Text: The behaviour of insulin-SiNPs and exenatide-SiNPs in biologically-relevant buffers depended on media pH and salinity. Both constructs aggregated in PBS, while remaining colloidally-stable in simulated small intestinal fluid (SIF) at pH 6.3 (Supplementary FIGS. 18, 19 for insulin-SiNPs and exenatide-SiNPs, respectively). PBS was used to measure the concentration of the released peptide, while SIF was used to examine secondary structure. For insulin-SiNPs (˜300 nm in diameter, particle concentration of 0.2 mg/mL), release was measured by HPLC in simulated gastric fluid (SGF) at pH 2.3, SIF at pH 6.3, and PBS at pH 7.4. […] Exenatide-SiNP dissolved in PBS in a size-dependent fashion: particles of ˜90 nm in diameter dissolved within 60 min at a particle concentration 0.2 mg/mL, while ˜200 nm diameter particles took over 3 h (Supplementary FIG. 20a). […] Parameters used were as follows: • Measurement window: 200-300 nm. • Data pitch: 0.5 nm • Band width: 2 nm • Response: 4 sec • Scanning speed 50 nm/min • Number of runs in measurement (accumulation): 8 • Temperature: Room temperature (20° C.) Insulin, L-arg solutions, mixtures and insulin core and SiNPs were measured at appropriate concentration in an ultra-low volume (1=1 mm) cuvette and at appropriate concentrations. […]
substance,measurement,value
released exenatide: exenatide released from exenatide-SiNPs in PBS,secondary structure of released peptide vs free peptide,comparable to that of the free peptide
